Measured values reported in article PMC10397247.
Read-outs that look alike come from different tables or passages of the source.

What was measured:
4H492-bA = biological target: T1, 4H492-bA; test: two-hybrid library CCNG1;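 note: natural log of median RNA to DNA barcode read ratio; higher means stronger binding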
T1 chain: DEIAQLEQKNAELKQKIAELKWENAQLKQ

4H477-bA = biological target: T2, 4H477-bA; test: two-hybrid library CCNG1;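 note: natural log of median RNA to DNA barcode read ratio; higher means stronger binding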
T2 chain: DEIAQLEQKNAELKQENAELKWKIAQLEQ

4H741-bA = biological target: T3, 4H741-bA; test: two-hybrid library CCNG1;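 note: natural log of median RNA to DNA barcode read ratio; higher means stronger binding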
T3 chain: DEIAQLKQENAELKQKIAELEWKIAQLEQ

4H40-bA = biological target: T4, 4H40-bA; test: two-hybrid library CCNG1;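 note: natural log of median RNA to DNA barcode read ratio; higher means stronger binding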
T4 chain: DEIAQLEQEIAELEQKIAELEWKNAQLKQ

4H949-bA = biological target: T5, 4H949-bA; test: two-hybrid library CCNG1;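 note: natural log of median RNA to DNA barcode read ratio; higher means stronger binding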
T5 chain: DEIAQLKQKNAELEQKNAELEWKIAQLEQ

4H_APH = biological target: T6, 4H_APH; test: two-hybrid library CCmax; conditions: mean of both orientations;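 note: natural log of median RNA to DNA barcode read ratio; higher means stronger binding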
T6 chain: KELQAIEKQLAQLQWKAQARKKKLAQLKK

4H2931-AA = biological target: T7, 4H2931-AA; test: two-hybrid library CCmax
T7 chain: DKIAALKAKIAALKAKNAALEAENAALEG

4H3015-AA = biological target: T8, 4H3015-AA; test: two-hybrid library CCmax; conditions: mean of both orientations
T8 chain: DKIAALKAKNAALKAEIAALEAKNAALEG

4H3001-AA = biological target: T9, 4H3001-AA; test: two-hybrid library CCmax; conditions: mean of both orientations
T9 chain: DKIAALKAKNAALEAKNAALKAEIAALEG

4H56-AA = biological target: T10, 4H56-AA; test: two-hybrid library CCmax; conditions: mean of both orientations
T10 chain: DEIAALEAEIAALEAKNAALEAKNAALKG

4H3438-AA = biological target: T11, 4H3438-AA; test: two-hybrid library CCmax; conditions: mean of both orientations
T11 chain: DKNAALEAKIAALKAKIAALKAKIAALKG

4H_BCR = biological target: T12, 4H_BCR; test: two-hybrid library CCmax; conditions: mean of both orientations
T12 chain: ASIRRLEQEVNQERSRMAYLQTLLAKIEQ

4H_GCN4 = test: two-hybrid library CCmax
4H347-AA = biological target: T13, 4H347-AA; test: two-hybrid library CCmax; conditions: mean of both orientations
T13 chain: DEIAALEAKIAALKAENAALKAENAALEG

4H3073-AA = biological target: T14, 4H3073-AA; test: two-hybrid library CCmax
T14 chain: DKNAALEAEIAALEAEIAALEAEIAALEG

GCN2_T = test: two-hybrid library CCmax
4H406-AA = biological target: T15, 4H406-AA; test: two-hybrid library CCmax; conditions: mean of both orientations
T15 chain: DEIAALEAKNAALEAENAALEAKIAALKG

4H452-AA = biological target: T16, 4H452-AA; test: two-hybrid library CCmax; conditions: mean of both orientations
T16 chain: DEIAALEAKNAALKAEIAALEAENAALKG

4H949-bN = biological target: T17, 4H949-bN; test: two-hybrid library CCNG1
T17 chain: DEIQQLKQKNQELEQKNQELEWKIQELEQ

4H349-bN = biological target: T18, 4H349-bN; test: two-hybrid library CCNG1
T18 chain: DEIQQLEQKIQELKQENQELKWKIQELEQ

4H932-bN = biological target: T19, 4H932-bN; test: two-hybrid library CCNG1
T19 chain: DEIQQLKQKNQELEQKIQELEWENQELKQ

4H3381-bN = biological target: T20, 4H3381-bN; test: two-hybrid library CCNG1
T20 chain: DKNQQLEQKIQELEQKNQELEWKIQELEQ

4H796-bN = biological target: T21, 4H796-bN; test: two-hybrid library CCNG1
T21 chain: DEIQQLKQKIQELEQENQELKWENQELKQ

4H730-bN = biological target: T22, 4H730-bN; test: two-hybrid library CCNG1
T22 chain: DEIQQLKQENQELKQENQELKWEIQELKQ

4H56-bN = biological target: T23, 4H56-bN; test: two-hybrid library CCNG1
T23 chain: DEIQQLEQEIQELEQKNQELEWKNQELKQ

4H43-AA = biological target: T24, 4H43-AA; test: two-hybrid library CCmax; conditions: mean of both orientations
T24 chain: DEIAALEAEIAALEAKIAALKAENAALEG

4H451-AA = biological target: T25, 4H451-AA; test: two-hybrid library CCmax; conditions: mean of both orientations
T25 chain: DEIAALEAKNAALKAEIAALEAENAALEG

4H4038-AA = biological target: T26, 4H4038-AA; test: two-hybrid library CCmax
T26 chain: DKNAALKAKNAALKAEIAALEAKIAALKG

4H510-AA = biological target: T27, 4H510-AA; test: two-hybrid library CCmax; conditions: mean of both orientations
T27 chain: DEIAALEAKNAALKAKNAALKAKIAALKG

O13-AA = biological target: T28, O13-AA; test: two-hybrid library CCmax; conditions: mean of both orientations
T28 chain: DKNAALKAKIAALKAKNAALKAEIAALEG

O14-AA = biological target: T29, O14-AA; test: two-hybrid library CCmax; conditions: mean of both orientations
T29 chain: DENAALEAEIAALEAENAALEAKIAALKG

O11-AA = biological target: T30, O11-AA; test: two-hybrid library CCmax; conditions: mean of both orientations
T30 chain: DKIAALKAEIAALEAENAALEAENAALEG

4H348-bA = biological target: T31, 4H348-bA; test: two-hybrid library CCNG1
T31 chain: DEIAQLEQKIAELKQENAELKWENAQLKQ

4H662-AA = biological target: T32, 4H662-AA; test: two-hybrid library CCmax; conditions: mean of both orientations
T32 chain: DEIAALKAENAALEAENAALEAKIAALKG

4H4033-AA = biological target: T33, 4H4033-AA; test: two-hybrid library CCmax; conditions: mean of both orientations
T33 chain: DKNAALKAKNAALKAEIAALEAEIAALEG

4H369-AA = biological target: T34, 4H369-AA; test: two-hybrid library CCmax; conditions: mean of both orientations
T34 chain: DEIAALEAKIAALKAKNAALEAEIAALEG

4H481-AA = biological target: T35, 4H481-AA; test: two-hybrid library CCmax; conditions: mean of both orientations
T35 chain: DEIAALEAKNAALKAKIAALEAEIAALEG

4H3922-AA = biological target: T36, 4H3922-AA; test: two-hybrid library CCmax; conditions: mean of both orientations
T36 chain: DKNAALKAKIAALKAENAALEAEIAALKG

4H3664-AA = biological target: T37, 4H3664-AA; test: two-hybrid library CCmax
T37 chain: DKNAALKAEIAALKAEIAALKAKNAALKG

4H55-AA = biological target: T38, 4H55-AA; test: two-hybrid library CCmax; conditions: mean of both orientations
T38 chain: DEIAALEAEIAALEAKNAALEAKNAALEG

4H40-bN = biological target: T39, 4H40-bN; test: two-hybrid library CCNG1
T39 chain: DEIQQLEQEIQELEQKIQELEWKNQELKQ

4H741-bN = biological target: T40, 4H741-bN; test: two-hybrid library CCNG1
T40 chain: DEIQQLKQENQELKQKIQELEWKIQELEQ

4H492-bN = biological target: T41, 4H492-bN; test: two-hybrid library CCNG1
T41 chain: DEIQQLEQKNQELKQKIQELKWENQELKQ

4H477-bN = biological target: T42, 4H477-bN; test: two-hybrid library CCNG1
T42 chain: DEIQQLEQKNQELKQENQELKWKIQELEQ

Chain of 4H_GCN4 (chain, as listed by the source): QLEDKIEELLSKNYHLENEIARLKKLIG

B1: 4H40-bA (peptide)
chain: DEIAQLEQEIAELEQKIAELEWKNAQLKQ
B1 showed an interaction score (4H492-bA) of 1.72, an interaction score (4H477-bA) of -1.02 and an interaction score (4H741-bA) of -0.423. The interaction score (4H40-bA) was 1.76 and the interaction score (4H949-bA) was -1.8.

B2: 4H2931-AA (peptide)
chain: DKIAALKAKIAALKAKNAALEAENAALEG
B2 gave an interaction score (4H_APH) of -1.87, an interaction score (4H2931-AA) of -1.66 and an interaction score (4H3015-AA) of -2.54. It also gave an interaction score (4H3001-AA) of -1.79, an interaction score (4H56-AA) of 1.81 and an interaction score (4H3438-AA) of -1.54. It also gave an interaction score (4H_BCR) of -1.73, an interaction score (4H_GCN4; mean of both orientations) of -2.51 and an interaction score (4H347-AA) of -1.41. The interaction score (4H3073-AA) was 0.803, the interaction score (GCN2_T) was -2.11 and the interaction score (4H406-AA) was -0.98. The interaction score (4H452-AA) was -1.98.

B3: 4H3381-bN (peptide)
chain: DKNQQLEQKIQELEQKNQELEWKIQELEQ
For B3, the interaction score (4H949-bN) was -1.1, the interaction score (4H349-bN) was -0.946 and the interaction score (4H932-bN) was -0.998. It also gave an interaction score (4H3381-bN) of 0.302, an interaction score (4H796-bN) of -1.3 and an interaction score (4H730-bN) of -1.25. For the same binder, the interaction score (4H56-bN) was -1.09.

B4: 4H4038-AA (peptide)
chain: DKNAALKAKNAALKAEIAALEAKIAALKG
B4 showed an interaction score (4H_APH) of -2.34, an interaction score (4H43-AA) of 0.922 and an interaction score (4H_BCR) of -1.53. The interaction score (4H_GCN4) was -1.46, the interaction score (4H451-AA) was -1.08 and the interaction score (4H4038-AA) was -0.654. It also gave an interaction score (4H510-AA) of -1.16, an interaction score (O13-AA) of -2.19 and an interaction score (GCN2_T) of -1.9. For the same binder, the interaction score (O14-AA) was 1.56 and the interaction score (O11-AA) was -1.13.

B5: 4H348-bA (peptide)
chain: DEIAQLEQKIAELKQENAELKWENAQLKQ
In the case of B5, the interaction score (4H492-bA) is reported as -0.0783, the interaction score (4H477-bA) is reported as -1.23 and the interaction score (4H741-bA) is reported as -0.761. It also gave an interaction score (4H40-bA) of -0.298 and an interaction score (4H348-bA) of 0.473.

B6: 4H3664-AA (peptide)
chain: DKNAALKAEIAALKAEIAALKAKNAALKG
For B6, the interaction score (4H662-AA) was -1.5, the interaction score (4H4033-AA) was -1.55 and the interaction score (4H369-AA) was -1.44. The interaction score (4H481-AA) was -1.04, the interaction score (4H3922-AA) was -1.57 and the interaction score (4H3664-AA) was 0.563. The interaction score (4H55-AA) was -1.04.

B7: 4H40-bN (peptide)
chain: DEIQQLEQEIQELEQKIQELEWKNQELKQ
B7 showed an interaction score (4H40-bN) of 0.212, an interaction score (4H741-bN) of -0.956 and an interaction score (4H492-bN) of -0.862. It also gave an interaction score (4H477-bN) of 0.0764.
